Measured values taken from patent publication US20100297135A1 (CRC FOR ASTHMA AND AIRWAYS, published 2010).

Columns and labels:
wild type human GM-CSF [1] = target: T1, wild type human GM-CSF (human, UniProt P04141 18-144); experiment: cell-based or functional assay
murine GM-CSF = target: T2, murine GM-CSF (murine, UniProt P01587 18-141); experiment: semi-quantitative ELISA (data not shown)
T2 construct: also called wild type murine GM-CSF
T2 sequence (looked up): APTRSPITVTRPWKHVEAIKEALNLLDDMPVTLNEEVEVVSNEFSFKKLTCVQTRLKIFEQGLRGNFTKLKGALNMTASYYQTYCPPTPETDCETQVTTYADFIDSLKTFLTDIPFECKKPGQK

wild type human GM-CSF [2] = target: T1, wild type human GM-CSF; experiment: SPR (Biacore), human GM-CSF coated on CM5 chip, antibody injected
Experimental: (§1) Recombinant human GM-CSF was coated onto a CM5 chip to determine the binding kinetics of 4K21 mAb. An uncoated flow cell was used as a reference. The antibody, prepared in HBS-EP at concentrations of 66.7 nM to 4.17 nM with 2-fold serial dilution, was injected for 2 minutes with a stabilisation time of 10 minutes and dissociation time of 15 minutes. The BIACore kinetic analysis wizard was run to determine each antibody's association (ka [1/Ms]), dissociation (kd[1/s]) and affinity (KD [nM]) to GM-CSF. […] Moreover, binding of 4K21 mAb to human GM-CSF is highly specific.

wild type human GM-CSF [3] = target: T1, wild type human GM-CSF; experiment: SPR (Biacore), alternative method of antibody capture; alternative method of antibody capture
wild type human GM-CSF [4] = target: T1, wild type human GM-CSF; experiment: SPR (Biacore), human GM-CSF coated on CM5 chip, antibody injected; GM-CSF coated onto CM5 chip, antibody injected
Experimental: as §1

[5] = target: T3, human GM-CSF mutant M2 (R24 to M37 replaced by murine sequence) (human); experiment: semi-quantitative ELISA; GM-CSF polypeptide coated in 2-fold dilutions (x axis = coating concentration), 4K21 fixed at 12.5 ng/ml, goat anti-mouse IgG-HRP, absorbance 450 nm
T3 construct: The flanking ranges are derived from the stated region
Experimental: (§2) The binding analysis of 4K21 to the mutant GM-CSF polypeptides M1 to M5b was performed using a semi-quantitative ELISA. Approximately equal amounts of GM-CSF were used to coat a Maxisorb (Nunc. Cat #464718) 384 well plate and serially diluted 2-fold to the bottom of the plate (16 times). Coating was performed overnight at room temperature. Plates were washed 3 times with wash buffer (1×PBS, 0.05% tween) and blocked for 1 hr at 37° C. with PBS, 1% BSA solution. Plates were then washed 3 times with wash buffer. […] The plates were washed 3 times with wash buffer then secondary antibody, HRP conjugated goat anti mouse IgG (Jackson Cat #115-036-062) for 4K21 and rabbit anti rat IgG (BD, cat#P0450) for the BD commercial antibody was added to the wells at 1/5000 dilution and incubated at 37° C. for 1 hr. Plates were washed 4 times following which BD OptEIA TMB substrate (Cat #555214), prepared according to the manufacturer's instructions, was added to the wells and incubated at room temperature for 10 minutes. The reaction was stopped with 1M sulphuric acid and the plate read on a Tecan plate reader at 450 nm with reference filter at 620 nm.

S96A = target: T4, S96A; experiment: semi-quantitative ELISA; GM-CSF polypeptide coated in serial dilutions (x axis = log coating concentration, no unit), 4K21 fixed at 12.5 ng/ml, goat anti-mouse IgG-HRP, absorbance
T4 construct: also called human GM-CSF alanine mutant S96A
Experimental: as §2
(§3) Binding analysis was carried out essentially as described above with the exception of the method of quantitation. The BD antibody was used to quantitate the relative expression of the alanine mutants as none of these mutants were in the M2 binding epitope of the BD antibody. […] The binding was then compared to 4K21 used at 12.5 ng/ml with the secondary antibody being goat anti-mouse IgG-HRP antibody (Cat #115-036-062) at 1/2500 dilution.

T99A = target: T5, T99A; experiment: as above
T5 construct: also called human GM-CSF alanine mutant T99A; the BD entry of the legend box prints 'T97A'
Experimental: as §2, §3

Q100A = target: T6, Q100A; experiment: as above
T6 construct: also called human GM-CSF alanine mutant Q100A
Experimental: as §2, §3

[6] = target: human GM-CSF alanine mutant C89A (human, UniProt P04141 18-144); experiment: as above
Experimental: as §2, §3

[7] = target: human GM-CSF alanine mutant I101A (human, UniProt P04141 18-144); experiment: as above
Experimental: as §2, §3

T1 sequence (P04141 other isoform, or with tags, fused parts or gaps limits assumed): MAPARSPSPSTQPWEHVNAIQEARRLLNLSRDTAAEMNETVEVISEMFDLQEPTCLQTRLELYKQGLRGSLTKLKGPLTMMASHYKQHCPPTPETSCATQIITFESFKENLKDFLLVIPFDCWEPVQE
Chain of human GM-CSF alanine mutant I101A (P04141 other isoform, or with tags, fused parts or gaps I101A I101A limits assumed): as the sequence (P04141 other isoform, or with tags, fused parts or gaps limits assumed) above, with I101A counted along it
T6 sequence (single chain, as listed by the source Q100A Q100A): as the sequence (P04141 other isoform, or with tags, fused parts or gaps limits assumed) above, with Q100A counted along it
T5 sequence (single chain, as listed by the source T99A T99A): as the sequence (P04141 other isoform, or with tags, fused parts or gaps limits assumed) above, with T99A counted along it
Chain of human GM-CSF alanine mutant C89A (P04141 other isoform, or with tags, fused parts or gaps C89A C89A limits assumed): as the sequence (P04141 other isoform, or with tags, fused parts or gaps limits assumed) above, with C89A counted along it
T4 sequence (single chain, as listed by the source S96A S96A): as the sequence (P04141 other isoform, or with tags, fused parts or gaps limits assumed) above, with S96A counted along it
T3 sequence (P04141 other isoform, or with tags, fused parts or gaps mutant): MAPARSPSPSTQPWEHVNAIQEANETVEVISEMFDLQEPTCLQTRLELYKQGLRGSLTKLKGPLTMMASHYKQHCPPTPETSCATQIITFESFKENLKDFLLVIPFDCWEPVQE

IC50, neutralisation of human GM-CSF dependent TF-1 cell growth (3H-thymidine) (wild type human GM-CSF [1]): ~0.308 nM | binding result (murine GM-CSF): no binding | Ka (wild type human GM-CSF [2]): > 5.9e+09 M⁻¹ | Kd (wild type human GM-CSF [2]): < 0.17 nM | koff (wild type human GM-CSF [2]): < 1e-05 s⁻¹ | kon (wild type human GM-CSF [2]): 59000 M⁻¹ s⁻¹ | Kd (wild type human GM-CSF [3]): ~0.43 nM | Kd (wild type human GM-CSF [4]): ~0.2 nM | EC50 (read off the curve) [5]: ~20 µg/mL | binding result (S96A): binds | binding result (T99A): binds | binding result (Q100A): binds | binding result [6]: binds | binding result [7]: binds
B1: murine anti-human GM-CSF monoclonal antibody 4K21-O11-E14 (antibody, V domains shown)
VH: EVQLVESGGGLVKSGGSLKLSCAASGFAFSAYDMSWVRQTPEKRLELVAYISSGGSSFYYPDTVKGRFTISRDNAKNTLYLQMSSLKSEDTAMYYCTRHLGFDYWGQGTTLTVSS
VL: DVVMTQTPLSLPVSLGDQASISCRSSQSLVNSNGNTYLHWFLQKPGQSPKLLIYKVSNRFSGVPDRFSGSGSGTDFTLKISRVEAEDLGVYFCSQSTHVPPTFGGGTKLEIK
notes: Murine monoclonal antibody from a hybridoma (ECACC 07051601), detected with anti-mouse IgG; also called 4K21 mAb; mAb 4K21
